The source of these data is patent publication US20250138018A1 (NEXTPOINT THERAPEUTICS, published 2025).

This test concerns the target T1, CD20 on CD20+ Raji cells (UniProt P11836 1-297, limits assumed).
T1 construct: whole, on cells; Endogenous CD20 of the Raji cell line; also called TAA (CD20)
T1 sequence (looked up): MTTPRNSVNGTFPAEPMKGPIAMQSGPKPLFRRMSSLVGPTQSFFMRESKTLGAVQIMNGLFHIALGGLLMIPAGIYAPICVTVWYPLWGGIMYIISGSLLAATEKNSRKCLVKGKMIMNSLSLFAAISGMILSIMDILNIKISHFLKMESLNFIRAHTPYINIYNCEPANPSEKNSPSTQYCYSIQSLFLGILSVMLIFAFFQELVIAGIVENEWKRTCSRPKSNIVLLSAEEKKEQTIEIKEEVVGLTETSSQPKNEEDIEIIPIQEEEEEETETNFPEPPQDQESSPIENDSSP
Description: Raji co-culture with TMIGD2-Jurkat NFAT reporter cells; binding told in words, not measured directly. The method, then: Raji cells (2×10⁴) were plated in a 96-well white flat bottom tissue culture plate with anti-TMIGD2/anti-CD20 bispecific antibodies (TK20-17C7-01, TK20-29F8-16, and TK20-39C9-2134) in 50 μl R10 medium (RPMI 1640+10% Fetal bovine serum) at 3-fold serial dilutions ranging from 10-0.5 μg/mL. An anti-CD20 (IgG1 LALA) was included as a negative control. The cells were incubated at 37° C. for 30 minutes. TMIGD2-Jurkat NFAT reporter cells (4×10⁴) were added to each well with 1 μg/mL anti-CD3 antibody (OKT3) in 50 μl R10 medium. Cells were incubated at 37° C. for 6 hours and 100 ul of Bio-Glo™ luciferase assay reagent (Promega®, G7940) was added to each well. Luciferase activity was measured on a plate reader.

B1: TK20-17C7-01 anti-TMIGD2/anti-CD20 bispecific antibody (bispecific antibody, human IgG1, kappa, L234A L235A)
heavy: not shown
light: QIVLSQSPAILSASPGEKVTMTCRASSSVSYIHWFQQKPGSSPKPWIYATSNLASGVPVRFSGSGSGTSYSLTISRVEAEDAATYYCQQWTSNPPTFGGGTKLEIKRTVAAPSVFIFPPSDEQLKSGTASVVCLLNNFYPREAKVQWKVDNALQSGNSQESVTEQDSKDSTYSLSSTLTLSKADYEKHKVYACEVTHQGLSSPVTKSFNRGEC
notes: Tetravalent Morrison format; copies: 2 + 2
As for B1, the binding result is given as “binds”.

B2: TK20-29F8-16 anti-TMIGD2/anti-CD20 bispecific antibody (bispecific antibody, human IgG1, kappa, L234A L235A)
heavy: not shown
light: QIVLSQSPAILSASPGEKVTMTCRASSSVSYIHWFQQKPGSSPKPWIYATSNLASGVPVRFSGSGSGTSYSLTISRVEAEDAATYYCQQWTSNPPTFGGGTKLEIKRTVAAPSVFIFPPSDEQLKSGTASVVCLLNNFYPREAKVQWKVDNALQSGNSQESVTEQDSKDSTYSLSSTLTLSKADYEKHKVYACEVTHQGLSSPVTKSFNRGEC
notes: as for B1
For B2, the binding result is listed as “binds”.

B3: TK20-39C9-2134 anti-TMIGD2/anti-CD20 bispecific antibody (bispecific antibody, human IgG1, kappa, L234A L235A)
heavy: not shown
light: QIVLSQSPAILSASPGEKVTMTCRASSSVSYIHWFQQKPGSSPKPWIYATSNLASGVPVRFSGSGSGTSYSLTISRVEAEDAATYYCQQWTSNPPTFGGGTKLEIKRTVAAPSVFIFPPSDEQLKSGTASVVCLLNNFYPREAKVQWKVDNALQSGNSQESVTEQDSKDSTYSLSSTLTLSKADYEKHKVYACEVTHQGLSSPVTKSFNRGEC
notes: as for B1
In the case of B3, the binding result is “binds”.
